From paper PMC3681700 (Molecular Biology of the Cell, 2013) come the findings set out here.

Like-named read-outs stand apart in the source and are kept apart here.

For assay [1], the target named is T1, Taxol-stabilized microtubules assembled from bovine brain tubulin (bovine, UniProt Q6B856 1-445). The assay is described as follows: co-sedimentation.
In assay [2] the target is T1, Taxol-stabilized microtubules assembled ….

B1: MAP65-1 (GFP-MAP65-1) (natural protein, Arabidopsis thaliana, UniProt Q9FLP0 1-587, looked up)
chain: MAVTDTESPHLGEITCGTLLEKLQEIWDEVGESDDERDKLLLQIEQECLDVYKRKVEQAAKSRAELLQTLSDANAELSSLTMSLGDKSLVGIPDKSSGTIKEQLAAIAPALEQLWQQKEERVREFSDVQSQIQKICGDIAGGLSNEVPIVDESDLSLKKLDDFQSQLQELQKEKSDRLRKVLEFVSTVHDLCAVLGLDFLSTVTEVHPSLDEDTSVQSKSISNETLSRLAKTVLTLKDDKKQRLQKLQELATQLIDLWNLMDTPDEERELFDHVTCNISSSVDEVTVPGALARDLIEQAEVEVDRLDQLKASRMKEIAFKKQSELEEIYARAHVEVNPESARERIMSLIDSGNVEPTELLADMDSQISKAKEEAFSRKDILDRVEKWMSACEEESWLEDYNRDQNRYSASRGAHLNLKRAEKARILVSKIPAMVDTLVAKTRAWEEEHSMSFAYDGVPLLAMLDEYGMLRQEREEEKRRLREQKKVQEQPHVEQESAFSTRPSPARPVSAKKTVGPRANNGGANGTHNRRLSLNANQNGSRSTAKEAGRRETLNRPAAPTNYVAISKEEAASSPVSGAADHQVPASP
The Kd is the constant that tells how readily two partners part at equilibrium. High values mean a looser complex, low ones a tighter complex. As for B1, the Kd in assay [1] is 21 ± 2 nM.

B2: Ase1 (natural protein, yeast, UniProt P50275 1-885, looked up)
chain: METATSSPLPIKSRRNSENSGSTTVIPHMNPSLATPLTVSTMVNQSNSKEFMKLTPVRIRDFGSPLKNVSTNYHFLDSENGKGNTMDNMYRENFILISKDLEKLLENLNVIYQNIGYSNTEIITKEKIIFTTISNSIKQFFEQADEELKRLSAENGIEQDILNNILERINDPSGIKTIPDLYIRNAILLQESKTVPQSPKKPLSLLSKKAALDTAKKFVLGSFLPRLRDYLKSLITLKHLIQSVKENLPGLTEADNEAIAEFPELSTLTAYLLQIENGKGDIGLSMKFIIDNRKDILKGSAFKTINEESVKHMNEVIKIYEEEYERRFKSVLTKKVSISSICEQLGTPLATLIGEDFEQDLRSYGEEENSTSEIPNFHPVDRERMSKIDITLEKLQAIHKERADKKRLLMEQCQKLWTRLKISQEYIKTFMRNNSSLSTESLGRISKEVMRLEAMKKKLIKKLISDSWDKIQELWRTLQYSEESRSKFIIVFEELRNSATTLQEDELLLETCENELKRLEEKLTLYKPILKLISDFESLQEDQEFLERSSKDSSRLLSRNSHKILLTEEKMRKRITRHFPRVINDLRIKLEEADGLFDQPFLFKGKPLSEAIDIQQQEIEAKYPRCRVRMQRSKKGKCGANKENKVIKNTFKATESSIRVPIGLNLNDANITYKTPSKKTIQGLTKNDLSQENSLARHMQGTTKLSSPNRRATRLLAPTVISRNSKGNIERPTLNRNRSSDLSSSPRINHTHGEHAVKPRQLFPIPLNKVDTKGSHIPQLTKEKALELLKRSTGTTGKENVRSPERKSSLEDYAQKLSSPYKEPEHSIYKLSMSPEGKFQLNIQQKDIESGFDDTSMMEDENDKDFITWKNEQVSKLNGFSFTDI
Turning to B2, in assay [2], the affinity, expressed as Kd, was 41 ± 7 nM.

B3: MAP65-4 (GFP-MAP65-4) (natural protein, Arabidopsis thaliana, UniProt Q9LZY0 1-677, looked up)
chain: MIRNSTEQFSRIETTCGLLLRQLQEIWNEMGETEDEKDASLADIEKECLSVYKRKVEEASRGKANLLKEIAVGRAEIAAIGSSMGGQEIHSNSRLGENLKEELENVNVQLDGLRKRKAERMIRFNEVIDQLLKLSLQLGNPTDYLKKFAAEETDLSLQRLEELRSQLGELQNEKSKRLEEVECLLKTLNSLCSVLGEDFKGMIRGIHSSLVDSNTRDVSRSTLDKLDMMIVNLREAKLQRMQKVQDLAVSLLELWNLLDTPAEEQKIFHNVTCSIALTESEITEANILSVASIKRVEDEVIRLSKIKITKIKEVILRKRLELEEISRKMHMATEVLKSENFSVEAIESGVKDPEQLLEQIDSEIAKVKEEASSRKEILEKVEKWMSACEEESWLEEYNRDDNRYNAGRGAHLTLKRAEKARLLVNKLPGMVEALTAKVTAWENERGNEFLYDGVRVLSMLGQYKTVWEEKEHEKQRQRDMKKLHGQLITEQEALYGSKPSPNKSGKKPLRTPVNAAMNRKLSLGGAMLHQSLKHEKATLNSKRTKYYDQNATSRRDSALPTLSGRRNSELPGRIRSKNVPVAGKAARSPMLRKPLSPVTSNILNSPEDHHKDAYTTKERILTPKTNEEKKRAVPTTPAASVAMTEATTPFTPAVEKRMDEEDVIVEYSFEEVRAGFC
Molecule B3 came in with a Kd in assay [1] of 19 ± 2 nM.
